Assay results reported in patent publication US20230235012A1 (ALPINE IMMUNE SCIENCES, published 2023).

How the values were obtained:
[1] = molecular target: T1, human CD28, full-length, expressed on transfected Expi293 cells (human, UniProt P10747 19-220); test: flow cytometry, 100 nM, Expi293 cells with human CD28
T1 construct: whole, on cells

[2] = molecular target: T2, human CTLA-4, full-length, expressed on transfected Expi293 cells (human, UniProt P16410 36-223); test: flow cytometry, 100 nM, Expi293 cells with human CTLA-4
T2 construct: whole, on cells
T2 sequence (P16410 36-223): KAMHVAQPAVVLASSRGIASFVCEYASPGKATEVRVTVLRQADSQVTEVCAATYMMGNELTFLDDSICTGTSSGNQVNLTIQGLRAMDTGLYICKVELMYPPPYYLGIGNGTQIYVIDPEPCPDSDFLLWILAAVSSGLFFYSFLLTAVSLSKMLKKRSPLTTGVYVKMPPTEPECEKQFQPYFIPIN

MFI [1] | MFI [2] | Binder
159000 MFI | 321000 MFI | variant ICOSL IgV-Fc fusion N52A/N57H/Q100S (Fc fusion) DTQEKEVRAMVGSDVELSCACPEGSRFDLNDVYVYWQTSESKTVVTYHIPQASSLEHVDSRYRNRALMSPAGMLRGDFSLRLFNVTPQDEQKFHCLVLSSSLGFQEVLSVEVTLHVAANFSVGSGGGGSEPKSSDKTHTCPPCPAPEAEGAPSVFLFPPKPKDTLMISRTPEVTCVVVDVSHEDPEVKFNWYVDGVEVHNAKTKPREEQYNSTYRVVSVLTVLHQDWLNGKEYKCKVSNKALPAPIEKTISKAKGQPREPQVYTLPPSREEMTKNQVSLTCLVKGFYPSDIAVEWESNGQPENNYKTTPPVLDSDGSFFLYSKLTVDKSRWQQGNVFSCSVMHEALHNHYTQKSLSLSPG
138000 MFI | 340000 MFI | variant ICOSL IgV-Fc fusion N52D/N57A/Q100A (Fc fusion) DTQEKEVRAMVGSDVELSCACPEGSRFDLNDVYVYWQTSESKTVVTYHIPQDSSLEAVDSRYRNRALMSPAGMLRGDFSLRLFNVTPQDEQKFHCLVLSASLGFQEVLSVEVTLHVAANFSVGSGGGGSEPKSSDKTHTCPPCPAPEAEGAPSVFLFPPKPKDTLMISRTPEVTCVVVDVSHEDPEVKFNWYVDGVEVHNAKTKPREEQYNSTYRVVSVLTVLHQDWLNGKEYKCKVSNKALPAPIEKTISKAKGQPREPQVYTLPPSREEMTKNQVSLTCLVKGFYPSDIAVEWESNGQPENNYKTTPPVLDSDGSFFLYSKLTVDKSRWQQGNVFSCSVMHEALHNHYTQKSLSLSPG
154000 MFI | 504000 MFI | variant ICOSL IgV-Fc fusion N52R/N57F/Q100P (Fc fusion) DTQEKEVRAMVGSDVELSCACPEGSRFDLNDVYVYWQTSESKTVVTYHIPQRSSLEFVDSRYRNRALMSPAGMLRGDFSLRLFNVTPQDEQKFHCLVLSPSLGFQEVLSVEVTLHVAANFSVGSGGGGSEPKSSDKTHTCPPCPAPEAEGAPSVFLFPPKPKDTLMISRTPEVTCVVVDVSHEDPEVKFNWYVDGVEVHNAKTKPREEQYNSTYRVVSVLTVLHQDWLNGKEYKCKVSNKALPAPIEKTISKAKGQPREPQVYTLPPSREEMTKNQVSLTCLVKGFYPSDIAVEWESNGQPENNYKTTPPVLDSDGSFFLYSKLTVDKSRWQQGNVFSCSVMHEALHNHYTQKSLSLSPG
95700 MFI | 333000 MFI | variant ICOSL IgV-Fc fusion N52D/Q100S (Fc fusion) DTQEKEVRAMVGSDVELSCACPEGSRFDLNDVYVYWQTSESKTVVTYHIPQDSSLENVDSRYRNRALMSPAGMLRGDFSLRLFNVTPQDEQKFHCLVLSSSLGFQEVLSVEVTLHVAANFSVGSGGGGSEPKSSDKTHTCPPCPAPEAEGAPSVFLFPPKPKDTLMISRTPEVTCVVVDVSHEDPEVKFNWYVDGVEVHNAKTKPREEQYNSTYRVVSVLTVLHQDWLNGKEYKCKVSNKALPAPIEKTISKAKGQPREPQVYTLPPSREEMTKNQVSLTCLVKGFYPSDIAVEWESNGQPENNYKTTPPVLDSDGSFFLYSKLTVDKSRWQQGNVFSCSVMHEALHNHYTQKSLSLSPG
137000 MFI | 318000 MFI | variant ICOSL IgV-Fc fusion N52R/N57W (Fc fusion) DTQEKEVRAMVGSDVELSCACPEGSRFDLNDVYVYWQTSESKTVVTYHIPQRSSLEWVDSRYRNRALMSPAGMLRGDFSLRLFNVTPQDEQKFHCLVLSQSLGFQEVLSVEVTLHVAANFSVGSGGGGSEPKSSDKTHTCPPCPAPEAEGAPSVFLFPPKPKDTLMISRTPEVTCVVVDVSHEDPEVKFNWYVDGVEVHNAKTKPREEQYNSTYRVVSVLTVLHQDWLNGKEYKCKVSNKALPAPIEKTISKAKGQPREPQVYTLPPSREEMTKNQVSLTCLVKGFYPSDIAVEWESNGQPENNYKTTPPVLDSDGSFFLYSKLTVDKSRWQQGNVFSCSVMHEALHNHYTQKSLSLSPG
161000 MFI | 233000 MFI | variant ICOSL IgV-Fc fusion N52R/N57F/Q100N (Fc fusion) DTQEKEVRAMVGSDVELSCACPEGSRFDLNDVYVYWQTSESKTVVTYHIPQRSSLEFVDSRYRNRALMSPAGMLRGDFSLRLFNVTPQDEQKFHCLVLSNSLGFQEVLSVEVTLHVAANFSVGSGGGGSEPKSSDKTHTCPPCPAPEAEGAPSVFLFPPKPKDTLMISRTPEVTCVVVDVSHEDPEVKFNWYVDGVEVHNAKTKPREEQYNSTYRVVSVLTVLHQDWLNGKEYKCKVSNKALPAPIEKTISKAKGQPREPQVYTLPPSREEMTKNQVSLTCLVKGFYPSDIAVEWESNGQPENNYKTTPPVLDSDGSFFLYSKLTVDKSRWQQGNVFSCSVMHEALHNHYTQKSLSLSPG
133000 MFI | 502000 MFI | variant ICOSL IgV-Fc fusion N52R/N57Y/Q100P (Fc fusion) DTQEKEVRAMVGSDVELSCACPEGSRFDLNDVYVYWQTSESKTVVTYHIPQRSSLEYVDSRYRNRALMSPAGMLRGDFSLRLFNVTPQDEQKFHCLVLSPSLGFQEVLSVEVTLHVAANFSVGSGGGGSEPKSSDKTHTCPPCPAPEAEGAPSVFLFPPKPKDTLMISRTPEVTCVVVDVSHEDPEVKFNWYVDGVEVHNAKTKPREEQYNSTYRVVSVLTVLHQDWLNGKEYKCKVSNKALPAPIEKTISKAKGQPREPQVYTLPPSREEMTKNQVSLTCLVKGFYPSDIAVEWESNGQPENNYKTTPPVLDSDGSFFLYSKLTVDKSRWQQGNVFSCSVMHEALHNHYTQKSLSLSPG
88700 MFI | 78300 MFI | variant ICOSL IgV-Fc fusion N52T/N57K/Q100P (Fc fusion) DTQEKEVRAMVGSDVELSCACPEGSRFDLNDVYVYWQTSESKTVVTYHIPQTSSLEKVDSRYRNRALMSPAGMLRGDFSLRLFNVTPQDEQKFHCLVLSPSLGFQEVLSVEVTLHVAANFSVGSGGGGSEPKSSDKTHTCPPCPAPEAEGAPSVFLFPPKPKDTLMISRTPEVTCVVVDVSHEDPEVKFNWYVDGVEVHNAKTKPREEQYNSTYRVVSVLTVLHQDWLNGKEYKCKVSNKALPAPIEKTISKAKGQPREPQVYTLPPSREEMTKNQVSLTCLVKGFYPSDIAVEWESNGQPENNYKTTPPVLDSDGSFFLYSKLTVDKSRWQQGNVFSCSVMHEALHNHYTQKSLSLSPG
98200 MFI | 233000 MFI | variant ICOSL IgV-Fc fusion N52S/N57A/Q100A (Fc fusion) DTQEKEVRAMVGSDVELSCACPEGSRFDLNDVYVYWQTSESKTVVTYHIPQSSSLEAVDSRYRNRALMSPAGMLRGDFSLRLFNVTPQDEQKFHCLVLSASLGFQEVLSVEVTLHVAANFSVGSGGGGSEPKSSDKTHTCPPCPAPEAEGAPSVFLFPPKPKDTLMISRTPEVTCVVVDVSHEDPEVKFNWYVDGVEVHNAKTKPREEQYNSTYRVVSVLTVLHQDWLNGKEYKCKVSNKALPAPIEKTISKAKGQPREPQVYTLPPSREEMTKNQVSLTCLVKGFYPSDIAVEWESNGQPENNYKTTPPVLDSDGSFFLYSKLTVDKSRWQQGNVFSCSVMHEALHNHYTQKSLSLSPG
71900 MFI | 79400 MFI | variant ICOSL IgV-Fc fusion N52S/N57L/Q100G (Fc fusion) DTQEKEVRAMVGSDVELSCACPEGSRFDLNDVYVYWQTSESKTVVTYHIPQSSSLELVDSRYRNRALMSPAGMLRGDFSLRLFNVTPQDEQKFHCLVLSGSLGFQEVLSVEVTLHVAANFSVGSGGGGSEPKSSDKTHTCPPCPAPEAEGAPSVFLFPPKPKDTLMISRTPEVTCVVVDVSHEDPEVKFNWYVDGVEVHNAKTKPREEQYNSTYRVVSVLTVLHQDWLNGKEYKCKVSNKALPAPIEKTISKAKGQPREPQVYTLPPSREEMTKNQVSLTCLVKGFYPSDIAVEWESNGQPENNYKTTPPVLDSDGSFFLYSKLTVDKSRWQQGNVFSCSVMHEALHNHYTQKSLSLSPG
161000 MFI | 341000 MFI | variant ICOSL IgV-Fc fusion N52T/N57Y/Q100A (Fc fusion) DTQEKEVRAMVGSDVELSCACPEGSRFDLNDVYVYWQTSESKTVVTYHIPQTSSLEYVDSRYRNRALMSPAGMLRGDFSLRLFNVTPQDEQKFHCLVLSASLGFQEVLSVEVTLHVAANFSVGSGGGGSEPKSSDKTHTCPPCPAPEAEGAPSVFLFPPKPKDTLMISRTPEVTCVVVDVSHEDPEVKFNWYVDGVEVHNAKTKPREEQYNSTYRVVSVLTVLHQDWLNGKEYKCKVSNKALPAPIEKTISKAKGQPREPQVYTLPPSREEMTKNQVSLTCLVKGFYPSDIAVEWESNGQPENNYKTTPPVLDSDGSFFLYSKLTVDKSRWQQGNVFSCSVMHEALHNHYTQKSLSLSPG
5720 MFI | 10200 MFI | variant ICOSL IgV-Fc fusion N52G/N57P/Q100D (Fc fusion) DTQEKEVRAMVGSDVELSCACPEGSRFDLNDVYVYWQTSESKTVVTYHIPQGSSLEPVDSRYRNRALMSPAGMLRGDFSLRLFNVTPQDEQKFHCLVLSDSLGFQEVLSVEVTLHVAANFSVGSGGGGSEPKSSDKTHTCPPCPAPEAEGAPSVFLFPPKPKDTLMISRTPEVTCVVVDVSHEDPEVKFNWYVDGVEVHNAKTKPREEQYNSTYRVVSVLTVLHQDWLNGKEYKCKVSNKALPAPIEKTISKAKGQPREPQVYTLPPSREEMTKNQVSLTCLVKGFYPSDIAVEWESNGQPENNYKTTPPVLDSDGSFFLYSKLTVDKSRWQQGNVFSCSVMHEALHNHYTQKSLSLSPG
21000 MFI | – | variant ICOSL IgV-Fc fusion N52P/N57P (Fc fusion) DTQEKEVRAMVGSDVELSCACPEGSRFDLNDVYVYWQTSESKTVVTYHIPQPSSLEPVDSRYRNRALMSPAGMLRGDFSLRLFNVTPQDEQKFHCLVLSQSLGFQEVLSVEVTLHVAANFSVGSGGGGSEPKSSDKTHTCPPCPAPEAEGAPSVFLFPPKPKDTLMISRTPEVTCVVVDVSHEDPEVKFNWYVDGVEVHNAKTKPREEQYNSTYRVVSVLTVLHQDWLNGKEYKCKVSNKALPAPIEKTISKAKGQPREPQVYTLPPSREEMTKNQVSLTCLVKGFYPSDIAVEWESNGQPENNYKTTPPVLDSDGSFFLYSKLTVDKSRWQQGNVFSCSVMHEALHNHYTQKSLSLSPG
185000 MFI | 464000 MFI | variant ICOSL IgV-Fc fusion N52R/N57F/Q100R (Fc fusion) DTQEKEVRAMVGSDVELSCACPEGSRFDLNDVYVYWQTSESKTVVTYHIPQRSSLEFVDSRYRNRALMSPAGMLRGDFSLRLFNVTPQDEQKFHCLVLSRSLGFQEVLSVEVTLHVAANFSVGSGGGGSEPKSSDKTHTCPPCPAPEAEGAPSVFLFPPKPKDTLMISRTPEVTCVVVDVSHEDPEVKFNWYVDGVEVHNAKTKPREEQYNSTYRVVSVLTVLHQDWLNGKEYKCKVSNKALPAPIEKTISKAKGQPREPQVYTLPPSREEMTKNQVSLTCLVKGFYPSDIAVEWESNGQPENNYKTTPPVLDSDGSFFLYSKLTVDKSRWQQGNVFSCSVMHEALHNHYTQKSLSLSPG
